Values belong to the molecule of their own block, whether it stands above or below them. Ends that are not written are not given here.
Columns and labels:
fibrinogen = biological target: T1, fibrinogen (Homo sapiens, UniProt P02675+P02679); test: Fibrinogen binding assay: FITC-labelled anti-human fibrinogen antibody, flow cytometry; conditions: for Percent positive (percentage of microspheres positive for fibrinogen): flow cytometry, FITC rabbit anti-human fibrinogen antibody; for Median fluorescence intensity: measure of the amount of fibrinogen bound to the microspheres
T1 construct: purchased Scottish National Blood Transfusion Service
T1 sequence (P02671 20-629 partner limits assumed): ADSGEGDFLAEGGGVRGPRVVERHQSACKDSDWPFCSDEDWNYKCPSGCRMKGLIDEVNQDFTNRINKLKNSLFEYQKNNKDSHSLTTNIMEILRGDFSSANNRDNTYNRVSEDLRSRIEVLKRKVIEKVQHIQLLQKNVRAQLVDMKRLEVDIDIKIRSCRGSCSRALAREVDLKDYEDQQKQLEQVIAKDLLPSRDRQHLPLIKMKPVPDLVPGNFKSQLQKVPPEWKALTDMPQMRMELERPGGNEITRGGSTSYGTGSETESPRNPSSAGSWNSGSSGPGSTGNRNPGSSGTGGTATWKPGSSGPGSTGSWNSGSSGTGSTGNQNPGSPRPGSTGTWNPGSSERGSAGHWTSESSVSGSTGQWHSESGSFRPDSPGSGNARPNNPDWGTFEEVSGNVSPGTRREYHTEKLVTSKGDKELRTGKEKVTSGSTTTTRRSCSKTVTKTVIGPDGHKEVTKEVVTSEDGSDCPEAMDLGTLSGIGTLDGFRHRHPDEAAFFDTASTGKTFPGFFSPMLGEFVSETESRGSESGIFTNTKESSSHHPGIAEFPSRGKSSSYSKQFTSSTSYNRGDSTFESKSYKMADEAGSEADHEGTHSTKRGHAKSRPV
T1 sequence (P02675 31-491): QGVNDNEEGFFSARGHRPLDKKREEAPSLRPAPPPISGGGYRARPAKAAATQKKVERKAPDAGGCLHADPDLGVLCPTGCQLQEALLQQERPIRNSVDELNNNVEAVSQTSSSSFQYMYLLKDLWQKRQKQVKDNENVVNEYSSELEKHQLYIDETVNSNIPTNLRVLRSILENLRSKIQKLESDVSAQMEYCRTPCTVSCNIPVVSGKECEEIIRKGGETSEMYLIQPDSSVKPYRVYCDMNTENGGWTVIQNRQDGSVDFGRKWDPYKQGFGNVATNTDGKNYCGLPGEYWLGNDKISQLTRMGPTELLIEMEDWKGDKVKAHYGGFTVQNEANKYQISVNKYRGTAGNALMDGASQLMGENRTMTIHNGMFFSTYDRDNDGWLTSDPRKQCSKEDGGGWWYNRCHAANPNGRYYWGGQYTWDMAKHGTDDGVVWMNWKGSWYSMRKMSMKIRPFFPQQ
T1 sequence (P02679 27-437 isoform P02679-2 limits assumed): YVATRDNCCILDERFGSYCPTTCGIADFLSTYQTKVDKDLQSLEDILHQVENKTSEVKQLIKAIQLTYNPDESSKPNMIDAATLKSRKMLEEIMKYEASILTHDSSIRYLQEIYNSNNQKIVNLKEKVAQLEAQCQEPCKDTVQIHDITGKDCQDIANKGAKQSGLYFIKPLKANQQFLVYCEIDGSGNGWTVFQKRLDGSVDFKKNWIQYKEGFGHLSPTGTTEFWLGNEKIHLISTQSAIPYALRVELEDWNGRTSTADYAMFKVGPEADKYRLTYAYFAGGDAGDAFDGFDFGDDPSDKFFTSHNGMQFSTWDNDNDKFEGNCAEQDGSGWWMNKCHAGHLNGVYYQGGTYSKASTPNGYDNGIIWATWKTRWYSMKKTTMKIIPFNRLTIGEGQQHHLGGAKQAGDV
Method: 2. Fibrinogen Binding Assay
(i) 5 μl of a suspension of artificial platelets obtained from step (iv) of method 1 above was added to 50 μl of HEPES buffered saline containing 1 μl of FITC-labelled rabbit antibody to human fibrinogen (DakoCytomation; F0111). The mixture was incubated at 20° C. for 20 minutes. Blank microspheres (without DTNB treatment or peptide) or a cysteine control sample were used as a negative control for these assays.
(ii) After 20 minutes the reaction was stopped by the addition of 0.5 ml saline. After a further 10 minutes, the sample was diluted 1/10 in saline and analysed in a Flow Cytometer (e.g. Coulter XL-MCL Flow Cytometer).
(iii) Data were recorded as the percentage of microspheres positive for fibrinogen and the median fluorescence intensity of the particles. The latter is a measure of the amount of fibrinogen bound to the microspheres and is in arbitrary units (log scale).

platelets [1] = conditions: purified peptide; cited from earlier work
platelets [2] = test: Platelet aggregation in platelet-depleted plasma by light transmission (PAP-4 aggregometer); type: cell-based, human
Method: 4.2 Method for Measuring Aggregation by Light Transmission Using the PAP-4 Platelet Aggregometer
In this system the product was mixed with platelet-depleted plasma in a stirred system at […] and aggregation was measured by a change in light transmission.
(i) 400 μl of platelet-depleted plasma was mixed with 20 μl of blank microspheres at 10 mg albumin/ml.
(ii) ADP was added at concentrations between 1 and 4×10^−5M
(iii) Aggregation was measured over 20 minutes and recorded as the percentage of maximum using autologous plasma to set the value for 100% aggregation.

platelets [3] = test: Platelet aggregation in platelet-depleted plasma by counting single platelets in a flow cytometer; type: cell-based, human; conditions: mean ± sd of 3 experiments; for Percentage aggregation in the absence of ADP: inactive platelets, percentage loss of single CD42b-positive platelets from the gate; for Percentage aggregation in the presence of ADP: platelets activated with sub-optimal ADP, percentage loss of single CD42b-positive platelets
Method: 3.2 Preparation of Platelet-Depleted Plasma
(i) Two tubes of blood were collected into tri-sodium citrate anticoagulant, by clean venepuncture via a 21 gauge butterfly needle. The blood was processed within 10 minutes of collection, to minimise platelet activation in vitro.
(ii) One tube of blood was centrifuged at 150× g for 20 minutes at 20° C. to prepare platelet rich plasma (PRP).
(iii) A second tube of blood was centrifuged at 1500× g for 30 minutes at 20° C. to prepare platelet poor plasma (PPP).
(iv) The PRP was removed from the blood cell fraction and mixed with the PPP to achieve a platelet count of between 10 and 50×10^6 platelets/ml.
4.1 Method for Measuring Aggregation by Counting in a Flow Cytometer
Flow cytometry can be used to count the number of residual single platelets, and thereby to calculate the percentage of platelets that have bound to artificial platelets. The sample is analysed by the forward and side scatter and an electronic gate is set around the population of single platelets. To do this a sample of platelet-rich plasma is used that contains EDTA to prevent platelet-platelet aggregation occurring. The platelets are labelled with a fluorescently-conjugated antibody such as a CD42b monoclonal that binds to the GPIb receptor on all platelets.
As aggregation occurs the number of platelets within the gate declines. The artificial platelets should not induce aggregation of non-activated (“resting”) platelets. If, however, the platelets are activated, for example by ADP they should aggregate with the artificial platelets. In this assay a sub-optimal concentration of ADP is used to distinguish the effects of the artificial platelets in platelet-deficient plasma.
(i) To set the platelet gate, whole blood that had been collected into EDTA was used. 5 μl of EDTA anticoagulated blood was added to 50 μl Hepes-buffered saline and analysed by forward and side scatter in a flow cytometer (e.g. Beckman Coulter MCL-XL). A gate was set around the platelet population so that>98% of the single platelets are contained within the platelet gate.
(ii) 400 μL of platelet-depleted plasma, with a platelet count of 10-60×10^6/ml, was mixed with 20 μL of control microspheres (blank capsules as disclosed in Example 1, Method 1 (i)) at 10 mg albumin/ml and ADP was added at final concentrations of between 1 and 4×10^−5 M. The sample was stirred at 900 rpm at 37° C. in an aggregometer cuvette for up 10 minutes and aggregation was measured as the change in light transmission (as described in section 4.2 below). The ADP concentration that gave>0% and<20% aggregation was used for the subsequent analysis of the interaction of the product with platelet-depleted plasma.
(iii) To test the products, 400 μL of platelet-depleted plasma, with a platelet count of 10-60×10^6/ml, was mixed with 20 μL of test microspheres at 10 mg albumin/ml and ADP at a concentration determined as described above. The sample was mixed at 900 rpm for up to 10 minutes. At appropriate times 5 μl aliquots were removed for flow cytometric analysis as follows.
(iv) For the analysis 5 μl of test sample was added to 50 μ1 Hepes-buffered saline containing an appropriate concentration of a fluorescently-conjugated antibody to an antigen present on all platelets. We used 1 μl of an RPE-conjugated CD42b monoclonal antibody (we used antibody 555473 provided by BD Harlingen). The sample was incubated for 20 minutes at room temperature (typically 20° C. ) then diluted with 0.5 ml formyl saline (0.2% formalin in 0.9% NaCl).
(v) The diluted sample was then analysed by forward and side scatter in a flow cytometer (e.g. Beckman Coulter MCL-XL) using the gate set around the platelet population in the control sample (see 4.1.i), allowing a fixed volume of sample (e.g. 20 μl) to pass through the cytometer. Particles enclosed in the platelet gate were analysed for fluorescence to identify the number of single platelets within the gate. […]

thrombin = test: Response of products to thrombin in platelet-free plasma (light transmission aggregometer); type: biochemical, human; conditions: increase in light transmission over 20 minutes, mean ± sd of 4 experiments
Method: Cross-linking of the agent of the invention via fibrin-fibrin bridging can be tested in a modified aggregation assay, for example, a protocol based on Levi et al, 1999, Nature Medicine, […], 107-111. The method that we used is reported below.
The assay was performed using a light transmission aggregometer (we used a PAP4 aggregometer (BioData Corporation)). […] Aggregation of the microspheres causes an increase in light transmission, which can be recorded as percentage “aggregation” relative to plasma alone.
The microspheres can be counted using a particle counter such as a Flow cytometer (e.g. Beckman Coulter MCL-XL) or Coulter Z2.
(ii) Platelet-free plasma was prepared by centrifuging blood for 30 minutes at 1500× g and collecting the supernatant.
(iii) 350 μl platelet-free plasma was placed in an aggregometer cuvette and 50 μl of blank microspheres were added. […]

fibrinogen (human) [4] = biological target: fibrinogen (human) (UniProt P02671); test: flow cytometry, FITC anti-human fibrinogen; albumin microspheres without peptide, fibrinogen bound directly to the surface
Chain of fibrinogen (human) (P02671 20-629 limits assumed, chain 1 of 3): as the sequence (P02671 20-629 partner limits assumed) above
Chain of fibrinogen (human) (P02675 31-491 limits assumed, chain 2 of 3, further chain): as the sequence (P02675 31-491) above
Chain of fibrinogen (human) (P02679 other isoform, or with tags, fused parts or gaps limits assumed, chain 3 of 3, further chain): as the sequence (P02679 27-437 isoform P02679-2 limits assumed) above

fibrinogen (human) [5] = biological target: fibrinogen (human) (UniProt P02671); test: flow cytometry, FITC anti-human fibrinogen; albumin microspheres without peptide, coated directly with 10 mg/ml fibrinogen at pH 6.0
fibrinogen (human) [6] = biological target: fibrinogen (human) (UniProt P02671); test: flow cytometry of peptide-linked albumin microspheres incubated with 3 mg fibrinogen per ml, detected with FITC rabbit anti-human fibrinogen
[7] = listed as peptide-coupled microspheres

Percent positive (percentage of microspheres positive for fibrinogen) (fibrinogen): 95%
Median fluorescence intensity (fibrinogen): 26 arbitrary units (log scale)
Molecule: Peptide Gly^n = 6: albumin microspheres with bound peptide GPRPGGGGGGC, incubated with 3 mg fibrinogen

Molecule: TDVNGDGRHDL [Product B12]
Effect on platelet aggregation (platelets [1]): caused inhibition of platelet aggregation

Percent positive (percentage of microspheres positive for fibrinogen) (fibrinogen): 94%
Median fluorescence intensity (fibrinogen): 28 arbitrary units (log scale)
Molecule: Peptide Gly^n = 3: albumin microspheres with bound peptide GPRPGGGC, incubated with 3 mg fibrinogen

Percent positive (percentage of microspheres positive for fibrinogen) (fibrinogen): 13.1%
Percent positive (percentage of microspheres positive for fibrinogen) (fibrinogen; listed as 0 mg/ml): 0%
Median fluorescence intensity (fibrinogen): 1.6 arbitrary units (log scale)
Median fluorescence intensity (fibrinogen; listed as 0 mg/ml): 0 arbitrary units (log scale)
Molecule: Product 2: albumin microspheres with peptide GPRPGGGGGGC bound, without fibrinogen
Aggregation in the absence of ADP (aggregometry) (platelets [2]): only low levels of aggregation
Percentage aggregation in the absence of ADP (platelets [3]): 17.8 ± 3.5%
Percentage aggregation in the absence of ADP (platelets [3]; listed as 0 mg/ml): 17.9 ± 3.45%
Percentage aggregation in the absence of ADP (platelets [3]; [7]): 17.8±3.5%
Percentage aggregation in the presence of ADP (platelets [3]): 57.3 ± 9.3%
Percentage aggregation in the presence of ADP (platelets [3]; listed as 0 mg/ml): 57.6 ± 7.64%
Percentage aggregation in the presence of ADP (platelets [3]; [7]): 57.3±9.3%
Percentage aggregation in the absence of thrombin (thrombin): 4.75 ± 4.4%
Percentage aggregation in the absence of thrombin (thrombin; listed as 0 mg/ml): 4.25 ± 4.93%

Median fluorescence intensity (arbitrary units (log scale)) (fibrinogen (human) [4]): 22.4
Percent positive (fibrinogen (human) [4]): 94.7%
Median fluorescence intensity (arbitrary units (log scale)) (fibrinogen (human) [5]): 22
Percent positive (fibrinogen (human) [5]): 94%
Molecule: human albumin microspheres of the reference batch (fibrinogen bound directly to the surface, method of WO 98/17319) (from UniProt P02768 25-609)

Percent positive (percentage of microspheres positive for fibrinogen) (fibrinogen): 6%
Median fluorescence intensity (fibrinogen): 2.4 arbitrary units (log scale)
Molecule: Peptide Gly^n = 0: albumin microspheres with bound peptide GPRPC, incubated with 3 mg fibrinogen

Median fluorescence intensity (arbitrary units (log scale)) (fibrinogen (human) [6]): 2.4
Percent positive (fibrinogen (human) [6]): 6%
B1: peptide GPRPC linked to human albumin microspheres (peptide)
peptide: GPRPC
modifications: also: Cys5 thiol bound to human albumin microspheres (DTNB-activated thiol)
